This note sets out measurements from patent US20140221622A1.

For the experiment, the target named is biotin-labeled cMet (UniProt P08581). The experiment can be described thus: indirect ELISA: antibody captured on anti-IgG Fc coated plate, biotin-labeled cMet detected with streptavidin-HRP, OD450; fit value of a flat control curve, unit taken from the axis. For orientation: In an ELISA, binding on a coated surface is turned into a signal by an enzyme label.
Chain of biotin-labeled cMet (P08581 25-932 limits assumed): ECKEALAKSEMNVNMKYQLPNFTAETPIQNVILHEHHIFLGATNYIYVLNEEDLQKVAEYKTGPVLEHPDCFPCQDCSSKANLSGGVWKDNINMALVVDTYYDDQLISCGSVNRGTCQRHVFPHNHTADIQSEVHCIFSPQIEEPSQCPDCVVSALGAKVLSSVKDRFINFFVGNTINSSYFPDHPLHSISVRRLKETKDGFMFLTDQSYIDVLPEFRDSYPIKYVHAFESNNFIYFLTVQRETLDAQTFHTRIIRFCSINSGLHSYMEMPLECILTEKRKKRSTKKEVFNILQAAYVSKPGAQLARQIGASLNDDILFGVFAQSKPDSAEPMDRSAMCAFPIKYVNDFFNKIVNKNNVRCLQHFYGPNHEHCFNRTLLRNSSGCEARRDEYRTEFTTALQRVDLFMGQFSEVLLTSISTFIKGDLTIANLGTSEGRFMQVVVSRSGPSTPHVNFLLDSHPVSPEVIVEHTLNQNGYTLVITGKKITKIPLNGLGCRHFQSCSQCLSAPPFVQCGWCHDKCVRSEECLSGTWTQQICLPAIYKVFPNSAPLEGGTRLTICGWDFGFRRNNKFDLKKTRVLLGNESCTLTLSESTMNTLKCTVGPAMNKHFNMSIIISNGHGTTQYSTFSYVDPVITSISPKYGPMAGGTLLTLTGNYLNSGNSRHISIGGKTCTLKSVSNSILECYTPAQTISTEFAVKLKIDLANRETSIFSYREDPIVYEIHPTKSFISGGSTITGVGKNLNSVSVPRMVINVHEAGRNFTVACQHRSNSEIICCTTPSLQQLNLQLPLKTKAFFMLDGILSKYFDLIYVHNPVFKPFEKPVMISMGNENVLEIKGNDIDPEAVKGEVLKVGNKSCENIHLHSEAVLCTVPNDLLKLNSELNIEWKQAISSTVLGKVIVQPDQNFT

One may read the IC50 as the midpoint of a concentration-inhibition curve. IL-1β (antibody) showed an IC50 of 1.1 nM. This counts as single-digit nanomolar.
